The results in this text go back to the supplement of paper PMC7125110.

B1: glmS ribozyme (parent)
chain: AUAAAAGCGCCAGAACUACAGAAAUGUAGUUGACGAGGAGGAGGUUUAUCGAAUUUUCGGCGGAUGCCUCCAAA

± gives the standard error. Variants at the floor of the assay were thinned out.

The variants in one data set derive from B1. Nature of the data set: self-cleavage kobs at 2500 uM GlcN6P; higher = faster cleavage; RNA array. To be noted: with glucosamine-6-phosphate. The method, boiled down:
(§1)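 E. coli RNA polymerase transcribed barcoded ribozyme variants in situ on sequenced MiSeq chips, which were tracked via a hybridised Cy3 probe at 37 °C. Tiles were imaged over ~14 h after glucosamine-6-phosphate (40 μM to 10 mM) in HEPES/KCl/Mg(OAc)2 buffer was flowed in. Normalised per-tile medians were fit to one- or two-exponential decays for kobs, and kcat and KM came from weighted Michaelis–Menten fits.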
As for AUAAAAGCGCCUGAACUACAGAAAUGUACUUGACGUGGAGGAGUUUUAUCGAAUUUUCGGGGGAUGCCUCCAAA, the “self-cleavage kobs at 2500 uM GlcN6P” value was under 1e-05 s⁻¹. On the same count and under the same terms, the result for AUAAAGGCGCCAGCACUACAGAAAUGUAGUUGACGAGGACGAGGUUUAUCGAUUUUUCGCCGGAUGCCUCCAAA reads under 1e-05 s⁻¹. The same measure, in the same setting: the value for AUAAAUGCGCCAGAACUACAGAAAUGUAGUUGACGUCGAGGAGGUUUUUCGAAUUUUCGGCGGAUGCCUCCAAA was under 1e-05 s⁻¹; that for AUAAAAGCGCCAGGACUACAGAAAUGUAGUUGACGAGGAGGAGCUUUAUCGAAUUUUCGGCGGAUGCCUCCAAA was 0.000239 ± 4.2e-05 s⁻¹. Still for that read-out and setting: the value for AUAAAAGCGCCAGAACUACAGAAAUGUAGUUGACGAGGAGGAGGUUUAUCGAAUUUACUGCGGAUUCCUCCAAA was under 1e-05 s⁻¹; that for AUAAAAGAGCCAGAACUACAGAAAUGUAGUUGCCGAGGAAGAGGUUGAUCGAAUUUUCGGCGGAUGCCUCCAAA was under 1e-05 s⁻¹; that for AUAAAAGCGCCAGAACUAUAGAAAUGUAGUUGACGAGGAGCAGGUUUAUCGAAUCUUCGGCGGAUGCCUACAAA was 0.000203 ± 9.2e-05 s⁻¹.

For the variant AUAAAAGCGCCAGAACUACAGAAAUGUAGUUGUCGAGGACGAGGUGUAUUGAAUUUUCGGCGGAUGCCUCCAAA, the “self-cleavage kobs at 2500 uM GlcN6P” value is under 1e-05 s⁻¹. The same measure, in the same setting: the result for AUAAAGGCGCCCGAACUACAGAAAUGUAGUUGACGACGAGGAGGAUUAUCGAAUUUUCGGCGGAUGCCUUCAAA reads under 1e-05 s⁻¹; that for AUAAAAGCGCCAGAACUACAGAAAUGUAGUGAACGAGGAGGAGGUGUAUCGUAUUUUCGGCGGAUGCCUCCAAA, under 1e-05 s⁻¹; that for AUAAAAACGCCCGAUCUACAGAAAUGUAGUUGACGAGGAGUAGGUUUAUCGAAUUUUCGGCGGAUGCCUCCAAA, under 1e-05 s⁻¹. On the same count and under the same terms, the value for AUAAAACCGCCAGAAAUACAGAAAUGUAGUUGACGAGGAGGACGGUUAUCGAAUUUUCGGCGGAUGCCUCUAAA was under 1e-05 s⁻¹. Still for that read-out and setting: the value for AUAAAAGCGCCAGAACUACAGAAAUGUAGUUGACGAGGAGGAGGUUUAUCGAAUUUUCUGCCGAUGCCUCAAAA was under 1e-05 s⁻¹; that for AUAAAAGCGCCAGAACUACAGAAAUGUAGUUCACUAGGAGCAGGUUUAUCGAAUUUUAGGCGGGUGCCUCCAAA was under 1e-05 s⁻¹.

As to AUAAAAGCGCCAGAACUACAGAAAUGUAGUUGACGAGGAGGAGGUUUAUCGCGUUUGCGGCGGAUGCCUGCAAA, the “self-cleavage kobs at 2500 uM GlcN6P” value stood at 5.76e-05 ± 2.3e-05 s⁻¹.

On to AUAAAAGCGCCAGAACUACAGAAAUGUAGUUGGCGAGUAGGAGAUUUAUCGAAUUUUCGGCGGAUGGCUCUAAA, for which the “self-cleavage kobs at 2500 uM GlcN6P” value was under 1e-05 s⁻¹. The same measure, in the same setting: the result for AUAAAAGCGCGAGAACUACAGAAAUGUAGUUGACGAGGAGGAUGUUUAUCGAAUUUUAGGCGGAUGCCUCCAAA reads under 1e-05 s⁻¹; that for AUAAAUGCGCCAGAACUACAGAAAUGUAGUUGACCAGGAGGAGGUUUAUCGAAUUAUCGUCGGGUGCCUCCAAA, under 1e-05 s⁻¹; that for AUAAAAGCGCCCGAACUACAGAAAUGUAGUUGACGAGGAGGAGGUUUAUCGAAGUUUCGGCGGAUGCCUCUAAA, 0.00338 ± 0.0011 s⁻¹. With AUAAAAGCUCCUGAACUACAGAAAUGUAGUUGACGAGGAGGAGGUUUAUCGAAUUUUCGGCGGAUGCUUCCAAA, the “self-cleavage kobs at 2500 uM GlcN6P” value is under 1e-05 s⁻¹.

As for AUAAAAGCGCCAGAACUACAGAAAUGUAGUUGACGAGGAGGUGGUUUAUCGAGUUUUCGGAGGAUGGCUCCAAA, the “self-cleavage kobs at 2500 uM GlcN6P” value is under 1e-05 s⁻¹. On the same count and under the same terms, the result for AUAAAAUCGCCAGAACUACAGAAAUGUAGUUGACGAGGAGGAGGUUUAUCGAAUUUUCGGCGGGUACCUCCAAA reads under 1e-05 s⁻¹; that for AUAAAAGCGCCAGAACUACAGAAAUGUAGUUGACGAGGAGCAGGUUUAUCGAAUUUUCUGCGGAUGUCUCCAAA, under 1e-05 s⁻¹. Same read-out and setting: the result for AUAAAAGCGACAGAACUACAGAAAUGUAGUUGACGAGGAGGAGGUUUAUCUAAUUUUCGGCGGAUGGCUCCAAA reads 0.000109 ± 5.4e-05 s⁻¹.

On to AUAAAAGCGCCAGAUCUACAGAAAUGUAGUUGACGAGGAGGAGGUUUAUCGAAUUUUCGGCGGGUGCCUCGAAA, for which the “self-cleavage kobs at 2500 uM GlcN6P” value turned out to be 5.53e-05 ± 1.5e-05 s⁻¹. The same measure, in the same setting: the value for AUAAAAGCGCCAGAACUACAGAAAUGUAGUUGACGAGGAGGAGGUGUAUCUAAUUUUCGGCGGAUGACUCCAAA was under 1e-05 s⁻¹; that for AUAAAAGCGCCAGAAUUACAGAAAUGUACUUGACGAGGAGGAGGUUUAUCGAAUUUUCGGCGGGUCCCUCCAAA was 0.000347 ± 0.00011 s⁻¹. Same read-out and setting: the value for AUAAAAGCGCCAUAACUACAGAAAUGUAGUGGACGAGGAGUAUGUUUAUCGAAUUUUCGGCGGAUGCCUCCAAA was under 1e-05 s⁻¹; that for AUAAAAGCGCCAGAACUACAGAAAUGUAUUUGACGAGGAGGAGGGUUAUCGAAUUUUCGGCGGAUGCCUCUAAA was 0.000117 ± 5e-05 s⁻¹; that for AUAAAAGCGCCAGAACUACAGAAAUGUAGUUGACGAGGAGGAGCUUUAUCAAAUCCUCGGCGGAUGCCUCCAAA was under 1e-05 s⁻¹. Take AUAAAAGCGCCAGAACUACAGAAAUGUAGUUGACGAGGAAGAGGUUUAUCGAAUACUCGGCGGAUGCCUCCAAA: the “self-cleavage kobs at 2500 uM GlcN6P” value is 0.000458 ± 0.00017 s⁻¹.

Take AUAAAAGGGCCAGAGCUACAGAAAUGUAGCUGACGAGGAGGGGGAGUAUCGAAUUUUCGGCGGAUGCCUCCAAA: the “self-cleavage kobs at 2500 uM GlcN6P” value was under 1e-05 s⁻¹. Still for that read-out and setting: the result for AUAAAGGCGCCAGAACUACAGAAAUGUAGUUGAUGAGGACGAGGUUUAUCGAAUUUUCGGCGGAUGCCUCCAAA reads under 1e-05 s⁻¹; that for AUAAAAACGCCAGAACUACAGAAAUGUAGGUAACGAGGGGGAGGUUUAUCGAAUUUUCGGCGGAUGCCUCCAAA, under 1e-05 s⁻¹; that for AUAAAAGCGCCAGGACUACAGAAAUGUAGUUGACGAUGAGGAGUUUUAUCGAAUUUUCGGCGGAUGCCUCCAAA, under 1e-05 s⁻¹.

In the next data set the parent is B1. Kind of data set: self-cleavage kobs at 10000 uM GlcN6P; higher = faster cleavage; RNA array. To be noted: with glucosamine-6-phosphate. A digest of the protocol:
as §1
AUAAAAGCGCCAGGACUACAGAAAUGUAGUUGACGAGGAGGAGCUUUAUCGAAUUUUCGGCGGAUGCCUCCAAA: the “self-cleavage kobs at 10000 uM GlcN6P” value was determined as 0.000423 ± 7.7e-05 s⁻¹.

Turning to AUAAAAGCGCCAGAACUACAGAAAUGUAGUUGACGAGGAGGAGGUGUAUCUAAUUUUCGGCGGAUGACUCCAAA, the “self-cleavage kobs at 10000 uM GlcN6P” value was under 1e-05 s⁻¹.
